Data from article PMC13391367.

Legend:
[1] = molecular target: UAP56 (10×His–3C–UAP56) (UniProt Q13838)
[2] = molecular target: SAC3D1–PS^M (10×His–MBP–SAC3D1^48–404, 3×V5–PCID2, SEM1) (human) (UniProt A6NKF1); test: grating-coupled interferometry; V5-tagged LENG8–PS^M or SAC3D1–PS^M captured on an amine-coupled anti-V5 antibody (Creoptix WAVE, 4PCP chip); UAP56 injected as a 1:2 dilution series from 5 µM, with or without 200 µM 15U RNA, 25 mM HEPES pH 7.9, 50 mM KCl, 1 mM MgCl2, 1 mM TCEP, with and without 1 mM ATP, 25 °C; one-to-one model
[3] = molecular target: LENG8–PS^M (10×His–MBP–LENG8^491–800, 3×V5–PCID2, SEM1) (human) (UniProt Q96PV6); test: as above

Sequence of UAP56 (10×His–3C–UAP56) (Q13838 whole entry): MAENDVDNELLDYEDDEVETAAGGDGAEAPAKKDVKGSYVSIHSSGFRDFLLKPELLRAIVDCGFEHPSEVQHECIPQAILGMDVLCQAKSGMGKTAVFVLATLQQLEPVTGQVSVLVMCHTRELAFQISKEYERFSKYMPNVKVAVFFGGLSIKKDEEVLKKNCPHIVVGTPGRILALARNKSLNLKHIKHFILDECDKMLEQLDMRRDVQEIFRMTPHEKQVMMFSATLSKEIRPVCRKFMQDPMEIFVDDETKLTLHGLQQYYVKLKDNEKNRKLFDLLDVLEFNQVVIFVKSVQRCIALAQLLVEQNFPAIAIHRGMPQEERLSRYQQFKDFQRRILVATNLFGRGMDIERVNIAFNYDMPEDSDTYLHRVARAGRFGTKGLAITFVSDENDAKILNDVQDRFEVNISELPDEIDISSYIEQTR
Sequence of UAP56(Δ1–43) (10×His–3C–UAP56(Δ1–43), residues 44–428) (Q13838 44-428, stated change not applied): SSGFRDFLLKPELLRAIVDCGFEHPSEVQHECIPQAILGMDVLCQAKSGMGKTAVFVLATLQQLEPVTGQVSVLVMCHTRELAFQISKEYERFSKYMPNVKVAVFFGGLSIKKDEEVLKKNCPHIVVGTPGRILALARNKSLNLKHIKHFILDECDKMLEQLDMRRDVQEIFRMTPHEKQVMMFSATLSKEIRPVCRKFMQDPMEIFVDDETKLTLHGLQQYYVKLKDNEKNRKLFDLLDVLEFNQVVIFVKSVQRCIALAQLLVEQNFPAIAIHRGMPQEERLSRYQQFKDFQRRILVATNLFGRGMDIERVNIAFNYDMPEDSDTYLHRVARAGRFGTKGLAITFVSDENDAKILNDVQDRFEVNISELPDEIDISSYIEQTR

Row | fold stimulation of the apparent ATPase rate of UAP56 with RNA and ATP (NADH-coupled assay) [1] | fold reduction of affinity against UAP56 [2] | fold reduction of affinity against UAP56 [3] | Substance
1 | 60 fold | – | – | SAC3D1–PS^M (10×His–MBP–SAC3D1^48–404, 3×V5–PCID2, SEM1) (from UniProt A6NKF1 48-404; Q5JVF3 1-399; P60896 1-70) (complex)
2 | – | > 30 fold | > 30 fold | UAP56(Δ1–43) (10×His–3C–UAP56(Δ1–43), residues 44–428) (from UniProt Q13838 44-428) (domain or fragment)
3 | 290 fold | – | – | LENG8–PS^M (10×His–MBP–LENG8^491–800, 3×V5–PCID2, SEM1) (from UniProt Q96PV6 491-800; Q5JVF3 1-399; P60896 1-70) (complex)
